In US20250073307A1 (Chugai, published 2025):
Where two headings read alike, the source gives them in different places.

T1: mouse CXCR3 (mCXCR3) expressed on Ba/F3 transfectant cells (mouse, UniProt O88410 1-367)
T1 sequence (looked up): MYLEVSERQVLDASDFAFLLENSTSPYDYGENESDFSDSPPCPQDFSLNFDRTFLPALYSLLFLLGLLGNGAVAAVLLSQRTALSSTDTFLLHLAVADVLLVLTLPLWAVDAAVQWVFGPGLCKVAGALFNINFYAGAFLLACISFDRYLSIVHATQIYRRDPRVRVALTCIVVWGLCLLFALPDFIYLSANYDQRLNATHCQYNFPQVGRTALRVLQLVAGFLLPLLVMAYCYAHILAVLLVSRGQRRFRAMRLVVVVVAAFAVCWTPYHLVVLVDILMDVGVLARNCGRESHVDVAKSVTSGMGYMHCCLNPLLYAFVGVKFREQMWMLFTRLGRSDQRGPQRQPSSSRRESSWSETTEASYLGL

B1: hCXCL10R75A.0642-G1T4k.one//VHn-G1T4h.one.H435R (Fc fusion)
chain 1: VPLSRTVRCTCISISNQCVNPRSLEKLEIIPASQFCPRVEIIATMKKKGEKRCLNPESKCIKNLLKAVSKERSKASPEPKSSDKTHTCPPCPAPELRRGPSVFLFPPKPKDTLMISRTPEVTCVVVDVSHEDPEVKFNWYVDGVEVHNAKTKPREEQYNSTYRVVSVLTVLHQDWLNGKEYKCKVSNKGLPSSIEKTISKAKGQPREPQVCTLPPSREEMTKNQVSLWCLVKGFYPSDIAVEWESNGQPENNYKTTPPVLDSDGSFFLYSKLTVDKSRWQEGNVFSCSVMHEALHNHYTQKSLSLSP
chain 2: EPKSSDKTHTCPPCPAPELRRGPSVFLFPPKPKDTLMISRTPEVTCVVVDVSHEDPEVKFNWYVDGVEVHNAKTKPREEQYNSTYRVVSVLTVLHQDWLNGKEYKCKVSNKGLPSSIEKTISKAKGQPREPQVYTLPPSRCEMTKNQVSLSCAVKGFYPSDIAVEWESNGQPENNYKTTPPVLDSDGSFFLVSKLTVDKSRWQEGNVFSCSVMHEALHNRYTQKSLSLSP
B2: hCXCL10R75A.0644-G1T4k.one//VHn-G1T4h.one.H435R (Fc fusion)
chain 1: VVLSRTVRCTCISISNQCVNPRSLEKLEIIPASQFCPRVEIIATMKKKGEKRCLNPESKCIKNLLKAVSKERSKASPEPKSSDKTHTCPPCPAPELRRGPSVFLFPPKPKDTLMISRTPEVTCVVVDVSHEDPEVKFNWYVDGVEVHNAKTKPREEQYNSTYRVVSVLTVLHQDWLNGKEYKCKVSNKGLPSSIEKTISKAKGQPREPQVCTLPPSREEMTKNQVSLWCLVKGFYPSDIAVEWESNGQPENNYKTTPPVLDSDGSFFLYSKLTVDKSRWQEGNVFSCSVMHEALHNHYTQKSLSLSP
chain 2: EPKSSDKTHTCPPCPAPELRRGPSVFLFPPKPKDTLMISRTPEVTCVVVDVSHEDPEVKFNWYVDGVEVHNAKTKPREEQYNSTYRVVSVLTVLHQDWLNGKEYKCKVSNKGLPSSIEKTISKAKGQPREPQVYTLPPSRCEMTKNQVSLSCAVKGFYPSDIAVEWESNGQPENNYKTTPPVLDSDGSFFLVSKLTVDKSRWQEGNVFSCSVMHEALHNRYTQKSLSLSP
B3: hCXCL10R75A.0643-G1T4k.one//VHn-G1T4h.one.H435R (Fc fusion)
chain 1: YVLSRTVRCTCISISNQPVNPRSLEKLEIIPASQFCPRVEIIATMKKKGEKRCLNPESKAIKNLLKAVSKERSKASPEPKSSDKTHTCPPCPAPELRRGPSVFLFPPKPKDTLMISRTPEVTCVVVDVSHEDPEVKFNWYVDGVEVHNAKTKPREEQYNSTYRVVSVLTVLHQDWLNGKEYKCKVSNKGLPSSIEKTISKAKGQPREPQVCTLPPSREEMTKNQVSLWCLVKGFYPSDIAVEWESNGQPENNYKTTPPVLDSDGSFFLYSKLTVDKSRWQEGNVFSCSVMHEALHNHYTQKSLSLSP
chain 2: EPKSSDKTHTCPPCPAPELRRGPSVFLFPPKPKDTLMISRTPEVTCVVVDVSHEDPEVKFNWYVDGVEVHNAKTKPREEQYNSTYRVVSVLTVLHQDWLNGKEYKCKVSNKGLPSSIEKTISKAKGQPREPQVYTLPPSRCEMTKNQVSLSCAVKGFYPSDIAVEWESNGQPENNYKTTPPVLDSDGSFFLVSKLTVDKSRWQEGNVFSCSVMHEALHNRYTQKSLSLSP
B4: hCXCL10R75A.0670-G1T4k.one//VHn-G1T4h.one.H435R (Fc fusion)
chain 1: YVLSRTVRCTCISISNQCVNPRSLEKLEIIPASQFCPRVEIIATMKKKGEKRCLNPESKCIKNLLKAVSKERSKASPEPKSSDKTHTCPPCPAPELRRGPSVFLFPPKPKDTLMISRTPEVTCVVVDVSHEDPEVKFNWYVDGVEVHNAKTKPREEQYNSTYRVVSVLTVLHQDWLNGKEYKCKVSNKGLPSSIEKTISKAKGQPREPQVCTLPPSREEMTKNQVSLWCLVKGFYPSDIAVEWESNGQPENNYKTTPPVLDSDGSFFLYSKLTVDKSRWQEGNVFSCSVMHEALHNHYTQKSLSLSP
chain 2: EPKSSDKTHTCPPCPAPELRRGPSVFLFPPKPKDTLMISRTPEVTCVVVDVSHEDPEVKFNWYVDGVEVHNAKTKPREEQYNSTYRVVSVLTVLHQDWLNGKEYKCKVSNKGLPSSIEKTISKAKGQPREPQVYTLPPSRCEMTKNQVSLSCAVKGFYPSDIAVEWESNGQPENNYKTTPPVLDSDGSFFLVSKLTVDKSRWQEGNVFSCSVMHEALHNRYTQKSLSLSP
B5: hCXCL10R75A.0613-G1T4k.one//VHn-G1T4h.one.H435R (Fc fusion)
chain 1: YVLSRTPRCTCISISNQCVNPRSLEKLEIIPASQFCPRVEIIATMKKKGEKRCLNPESKCIKNLLKAVSKERSKASPEPKSSDKTHTCPPCPAPELRRGPSVFLFPPKPKDTLMISRTPEVTCVVVDVSHEDPEVKFNWYVDGVEVHNAKTKPREEQYNSTYRVVSVLTVLHQDWLNGKEYKCKVSNKGLPSSIEKTISKAKGQPREPQVCTLPPSREEMTKNQVSLWCLVKGFYPSDIAVEWESNGQPENNYKTTPPVLDSDGSFFLYSKLTVDKSRWQEGNVFSCSVMHEALHNHYTQKSLSLSP
chain 2: EPKSSDKTHTCPPCPAPELRRGPSVFLFPPKPKDTLMISRTPEVTCVVVDVSHEDPEVKFNWYVDGVEVHNAKTKPREEQYNSTYRVVSVLTVLHQDWLNGKEYKCKVSNKGLPSSIEKTISKAKGQPREPQVYTLPPSRCEMTKNQVSLSCAVKGFYPSDIAVEWESNGQPENNYKTTPPVLDSDGSFFLVSKLTVDKSRWQEGNVFSCSVMHEALHNRYTQKSLSLSP

Tests used:
Assay in all cases: cell-based or functional assay
[1] = target: T1, mouse CXCR3 (mCXCR3) expressed on Ba/F3 …
[2] = target: T1, mouse CXCR3 (mCXCR3) expressed on Ba/F3 …; remark: listed apart in the source
[3] = target: T1, mouse CXCR3 (mCXCR3) expressed on Ba/F3 …; remark: listed apart in the source
[4] = target: T1, mouse CXCR3 (mCXCR3) expressed on Ba/F3 …; remark: listed apart in the source
[5] = target: T1, mouse CXCR3 (mCXCR3) expressed on Ba/F3 …; remark: listed apart in the source

| Binder | cell migration-inducing activity (BaF3/mCXCR3 transwell) at 3 nM, relative to hCXCL10R75A Fc fusion = 100% [2] [%] | cell migration-inducing activity (BaF3/mCXCR3 transwell) at 10 nM, relative to hCXCL10R75A Fc fusion = 100% [2] [%] | cell migration-inducing activity (BaF3/mCXCR3 transwell) at 30 nM, relative to hCXCL10R75A Fc fusion = 100% [2] [%] | cell migration-inducing activity (BaF3/mCXCR3 transwell) at 100 nM, relative to hCXCL10R75A Fc fusion = 100% [2] [%] | cell migration-inducing activity (BaF3/mCXCR3 transwell) at 300 nM, relative to hCXCL10R75A Fc fusion = 100% [2] [%] | cell migration-inducing activity (BaF3/mCXCR3 transwell) at 1000 nM, relative to hCXCL10R75A Fc fusion = 100% [2] [%] | cell migration-inducing activity at 3 nM, relative to hCXCL10R75A.0670 Fc fusion = 100% [5] [%] | cell migration-inducing activity at 10 nM, relative to hCXCL10R75A.0670 Fc fusion = 100% [5] [%] | cell migration-inducing activity at 30 nM, relative to hCXCL10R75A.0670 Fc fusion = 100% [5] [%] | cell migration-inducing activity at 100 nM, relative to hCXCL10R75A.0670 Fc fusion = 100% [5] [%] | cell migration-inducing activity at 300 nM, relative to hCXCL10R75A.0670 Fc fusion = 100% [5] [%] | cell migration-inducing activity at 1000 nM, relative to hCXCL10R75A.0670 Fc fusion = 100% [5] [%] | other results |
| --- | --- | --- | --- | --- | --- | --- | --- | --- | --- | --- | --- | --- | --- |
| B1 | 196 | 150 | 106 | 98 | 116 | 80 | – | – | – | – | – | – | cell migration-inducing activity (BaF3/mCXCR3 transwell) at 3 nM, relative to hCXCL10R75A Fc fusion = 100% [1]: 196%; cell migration-inducing activity (BaF3/mCXCR3 transwell) at 10 nM, relative to hCXCL10R75A Fc fusion = 100% [1]: 150%; cell migration-inducing activity (BaF3/mCXCR3 transwell) at 30 nM, relative to hCXCL10R75A Fc fusion = 100% [1]: 106%; cell migration-inducing activity (BaF3/mCXCR3 transwell) at 100 nM, relative to hCXCL10R75A Fc fusion = 100% [1]: 98%; cell migration-inducing activity (BaF3/mCXCR3 transwell) at 300 nM, relative to hCXCL10R75A Fc fusion = 100% [1]: 116%; cell migration-inducing activity (BaF3/mCXCR3 transwell) at 1000 nM, relative to hCXCL10R75A Fc fusion = 100% [1]: 80% |
| B2 | 174 | 144 | 109 | 107 | 153 | 163 | – | – | – | – | – | – | – |
| B3 | – | – | – | – | – | – | – | – | – | – | – | – | cell migration-inducing activity (BaF3/mCXCR3 transwell) at 3 nM, relative to hCXCL10R75A Fc fusion = 100% [3]: 126%; cell migration-inducing activity (BaF3/mCXCR3 transwell) at 10 nM, relative to hCXCL10R75A Fc fusion = 100% [3]: 100%; cell migration-inducing activity (BaF3/mCXCR3 transwell) at 30 nM, relative to hCXCL10R75A Fc fusion = 100% [3]: 129%; cell migration-inducing activity (BaF3/mCXCR3 transwell) at 100 nM, relative to hCXCL10R75A Fc fusion = 100% [3]: 141%; cell migration-inducing activity (BaF3/mCXCR3 transwell) at 300 nM, relative to hCXCL10R75A Fc fusion = 100% [3]: 124%; cell migration-inducing activity (BaF3/mCXCR3 transwell) at 1000 nM, relative to hCXCL10R75A Fc fusion = 100% [3]: 26% |
| B4 | – | – | – | – | – | – | 100 | 100 | 100 | 100 | 100 | 100 | cell migration-inducing activity (BaF3/mCXCR3 transwell) at 3 nM, relative to hCXCL10R75A Fc fusion = 100% [4]: 195%; cell migration-inducing activity (BaF3/mCXCR3 transwell) at 10 nM, relative to hCXCL10R75A Fc fusion = 100% [4]: 146%; cell migration-inducing activity (BaF3/mCXCR3 transwell) at 30 nM, relative to hCXCL10R75A Fc fusion = 100% [4]: 132%; cell migration-inducing activity (BaF3/mCXCR3 transwell) at 100 nM, relative to hCXCL10R75A Fc fusion = 100% [4]: 132%; cell migration-inducing activity (BaF3/mCXCR3 transwell) at 300 nM, relative to hCXCL10R75A Fc fusion = 100% [4]: 127%; cell migration-inducing activity (BaF3/mCXCR3 transwell) at 1000 nM, relative to hCXCL10R75A Fc fusion = 100% [4]: 24% |
| B5 | – | – | – | – | – | – | 209 | 132 | 110 | 102 | 93 | 49 | – |
